# Source: US20250357519
# B1: Strep-tag II-tagged DvH-FDH2 (recombinant formate dehydrogenase 2 from Desulfovibrio vulgaris Hildenborough, heterodimer of large and small subunit) (protein)
# chain 1: MRMPRRTFIKLASASAGALAFAGLGQSLAPTVARAAELKIAKAKVTPSVCCFCAVGCGLLVYTDTQTGRSINIEGDPDHPTNEGTLCPKGASIWQTTERSKRVTKVLYRAPGAAAWEEKSWDWALPRIARKIKETRDATFELTNDKGQTVNRTRGIASVGSAAVDNEEGWLMQAMMRALGLVYIESHARIUHSSTVGALAESYGRGAMTNHWIDLKNSDVILIMGSNAAENHPISFKWVTRAQERGATLIHVDPRFTRTSAKADIHAHIRSGTDIAFFGGLIRYIMENDLFFRQYVVDYTNASYIVGADYGFADGLFTGFDAEKGTYNTKKWAFAADENGMTLKDPTLNDPRCVFQLMKAHYARYDRKTVSDVTGISEEQLATLWSTFASTGKPDRAGTILYAMGQCQHTVGVQNIRALSMIQLLLGNIGIAGGGVNALRGESNVQGTTDISLLCDNLSGYLPTPKASWATFDDYVKGTTPVDKDPKSANWWSNRGKYLASYMKSVYPTASHQDGYLWHPKVDDGKITDYSWLQIFERMSKGGFKGAFVWGQNPCAGGANAGKNRKAMETLDWMVVVNLFENESSLFWKGPGVDPAKVKTEVFFLPACMSVEKGGSIANSGRWLQWREPGPKPMGDSRSDGDIVLDLYDEIRKLYREEKGAFPEPVLALDTDYRTDGKYDHHKVAKTLNGKFLTDVTIGDKTYKAGQQVPGFAMLQADGSTTSGCWIFTGCYTDAGNMMARRDRTQTPEQAAIGLFPNWSYAWPANRRILYNRAAVDMTGKPFDPKRAVIAWNGEKWVGDVPDGGWKPGEKLPFIMIREGRGQLFGPGRVDGPFPEHYEPFESPLESHPFSKQRVNPTALAFSHEPKAVRDKRYPFICTTYRVTEQWQSGTMTRNTGWLKEMQPEGFCEISRELAKELGIANGDAVVLESLRGKVQVVAIVTPRLKPFKVMGEVMHEVGIPWQFGWGQHVGKGDSANLLSPSVGDPNTGIPETKVFMVNLRKA
# chain 2: MRPLGSLPQGMRRVSRRHIREAYMNGKTFFIDQTRCTACRGCQAACKQWKKFGSIETRNTGSYQNPPDLGPSTFKLVRFNEVEVDGKLKWLFFPEQCRHCLEPPCKMVADALIPGAIVQDAETGAVLYTEKTKGLDYMEVRSACPYDIPRQDPATGLLTKCNMCIDRVQNGMLPACVKTCPTGTMHFGDRADMLELAQKRLGEVKKRSPAALLADSDLVRVLYLCELAPANYHSHMVAEADTSRIGPFSRRALLRLRPFA
# Assays:
# [1] = target: native equine heart cytochrome c (Sigma C2506), P00004
# [2] = target: partially acetylated equine heart cytochrome c (Sigma C4186), P00004
# partially acetylated equine heart cytochrome c (Sigma C4186), P00004, sequence (P00004 2-105): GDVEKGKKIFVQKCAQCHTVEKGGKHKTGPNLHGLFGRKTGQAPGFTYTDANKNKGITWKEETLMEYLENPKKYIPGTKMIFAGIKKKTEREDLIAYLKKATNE
# native equine heart cytochrome c (Sigma C2506), P00004, sequence (P00004 2-105): as above
protein,measurement,setting,value
B1,reduction of native equine cytochrome c in air at doubled formate concentration (electronic spectra),[1],Doubling the formate concentration resulted in near-stoichiometric reduction in air
same,"reduction of native equine cytochrome c in the presence of formate (absorbance at 550 nm), anaerobic",[1],stoichiometric reduction occurred under anaerobic conditions
same,"reduction of native equine cytochrome c in the presence of formate (absorbance at 550 nm), in air",[1],~80% underwent reduction in air
same,reduction of acetylated equine cytochrome c during DvH-FDH2 catalysis (absorbance at 550 nm),[2],DvH-FDH2 does not reduce acetylated cytochrome c
